In assay [1] the target is T1, Human CLEC12A expressed on cells (Ba/F3-hCLEC12A, PL21, HL60) (human, UniProt Q5QGZ9 1-265).
T1 sequence: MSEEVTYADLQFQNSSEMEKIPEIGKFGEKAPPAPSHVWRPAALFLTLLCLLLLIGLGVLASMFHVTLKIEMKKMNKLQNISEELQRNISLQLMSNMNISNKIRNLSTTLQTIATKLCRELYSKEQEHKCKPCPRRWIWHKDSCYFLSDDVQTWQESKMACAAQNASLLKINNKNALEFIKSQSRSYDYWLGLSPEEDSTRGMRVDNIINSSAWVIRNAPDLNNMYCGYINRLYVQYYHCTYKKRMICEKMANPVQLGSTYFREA
In words: cell-based or functional assay.

Assay [2] concerns the target T2, Human CLEC12A-His (recombinant, K244 WT) (human, UniProt Q5QGZ9 65-265).
T2 construct: Made in house (Dragonfly Tx); also called hCLEC12A; hCLEC12A-His; not shown: His tag
T2 sequence: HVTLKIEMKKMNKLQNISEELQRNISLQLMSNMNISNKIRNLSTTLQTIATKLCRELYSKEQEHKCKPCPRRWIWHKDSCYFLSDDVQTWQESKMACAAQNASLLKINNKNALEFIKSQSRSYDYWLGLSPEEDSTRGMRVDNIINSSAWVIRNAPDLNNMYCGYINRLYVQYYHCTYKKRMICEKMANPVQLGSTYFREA
Briefly: SPR, two-state fit (kd1); control (fully purified protein study). In general terms: In SPR one partner is held on a chip, and binding of the other changes the refractive index at the surface.

Assay [3] has as its target T2, Human CLEC12A-His (recombinant, K244 WT). Briefly: SPR, two-state fit (kd1); control sample.
Method: (§1) Briefly, human Fc specific antibodies were covalently immobilized at a density ˜8000-10000 resonance units (RU) on carboxy methyl dextran matrix of a CM5 biosensor chip via amine-coupling chemistry to create an anti-hFc IgG chip. […] Association was monitored for 300 seconds and dissociation was monitored for 600 seconds. Surfaces were regenerated between cycles with three pulses of 10 mM glycine-HCl, pH 1.7 injected for 20 seconds at 100 μl/min. HBS-EP+ (1×) with 0.1 mg/ml BSA was used as running buffer throughout the experiment. Experiments were performed at physiological temperature of 37° C. To obtain kinetic rate constants and overall binding affinity, double-referenced data were fit to a two-state kinetic model using Biacore 8K Insight Evaluation software (Cytiva).
Assay [4] shares this target. In words: SPR, two-state fit; after 4 wks 40C in HST pH 6.0.
Method: as §1
The target in assay [5] is T3, De-glycosylated human CLEC12A (human, UniProt Q5QGZ9 65-265, treated with PNGaseF (N-linked glycans removed)).
T3 construct: Same recombinant antigen as m2 after PNGaseF; also called De-glycosylated CLEC12A
T3 sequence: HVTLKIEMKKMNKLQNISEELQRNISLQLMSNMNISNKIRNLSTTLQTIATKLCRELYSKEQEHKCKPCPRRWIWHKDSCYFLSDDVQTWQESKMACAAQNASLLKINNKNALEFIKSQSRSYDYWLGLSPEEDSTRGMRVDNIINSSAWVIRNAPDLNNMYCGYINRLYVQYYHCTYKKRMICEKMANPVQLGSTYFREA
In words: SPR, two-state fit.
Method: as §1

In assay [6] the target is T4, De-sialylated human CLEC12A (human, UniProt Q5QGZ9 65-265, treated with neuraminidase (terminal sialic acids removed)).
T4 construct: Same recombinant antigen as m2 after neuraminidase; also called De-sialylated CLEC12A
T4 sequence: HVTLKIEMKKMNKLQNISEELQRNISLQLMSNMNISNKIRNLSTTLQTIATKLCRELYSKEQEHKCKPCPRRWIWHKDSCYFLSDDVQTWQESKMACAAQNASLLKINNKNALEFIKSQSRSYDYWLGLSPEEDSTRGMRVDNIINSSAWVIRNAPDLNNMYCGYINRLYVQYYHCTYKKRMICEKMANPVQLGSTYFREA
Briefly: SPR, two-state fit.
Method: as §1

For assay [7], the target named is T2, Human CLEC12A-His (recombinant, K244 WT). In words: SPR, two-state fit; after pH 8, 40C, 2 wks.
The target is the same in assay [8]. Briefly: SPR, two-state fit (ka1); after pH 5.0, 40C, 2 wks.
Method: as §1

B1: AB0089 TriNKET (bispecific antibody, human IgG1, kappa)
chain: QLQLQESGPGLVKPSETLSLTCTVSGFSLTNYGLHWIRQPPGKCLEWIGVIWVGGATDYNPSLKSRVTISVDTSKNQFSLKLSSVQAADTAVYYCAKGDYGDTLDYWGQGTLVTVSSGGGGSGGGGSGGGGSGGGGSDIQMTQSPSSLSASVGDRVTITCHASQNINFWLSWYQQKPGKAPKLLIYEASNLHTGVPSRFSGSGSGTDFTLTISSLQPEDFATYYCQQSHSYPLTFGCGTKLEIKGSDKTHTCPPCPAPELLGGPSVFLFPPKPKDTLMISRTPEVTCVVVDVSHEDPEVKFNWYVDGVEVHNAKTKPREEQYNSTYRVVSVLTVLHQDWLNGKEYKCKVSNKALPAPIEKTISKAKGQPREPRVYTLPPCRDELTKNQVSLTCLVKGFYPSDIAVEWESNGQPENNYKTTPPVLVSDGSFTLYSKLTVDKSRWQQGNVFSCSVMHEALHNHYTQKSLSLSPG
heavy: EVQLVESGGGLVKPGGSLRLSCAASGFTFSSYSMNWVRQAPGKGLEWVSSISSSSSYIYYADSVKGRFTISRDNAKNSLYLQMNSLRAEDTAVYYCARGAPIGAAAGWFDPWGQGTLVTVSSASTKGPSVFPLAPSSKSTSGGTAALGCLVKDYFPEPVTVSWNSGALTSGVHTFPAVLQSSGLYSLSSVVTVPSSSLGTQTYICNVNHKPSNTKVDKKVEPKSCDKTHTCPPCPAPELLGGPSVFLFPPKPKDTLMISRTPEVTCVVVDVSHEDPEVKFNWYVDGVEVHNAKTKPREEQYNSTYRVVSVLTVLHQDWLNGKEYKCKVSNKALPAPIEKTISKAKGQPREPQVCTLPPSRDELTENQVSLTCLVKGFYPSDIAVEWESNGQPENNYKTTPPVLDSDGSFFLYSWLTVDKSRWQQGNVFSCSVMHEALHNHYTQKSLSLSPG
light: DIQMTQSPSSVSASVGDRVTITCRASQGISSWLAWYQQKPGKAPKLLIYAASSLQSGVPSRFSGSGSGTDFTLTISSLQPEDFATYYCQQGVSFPRTFGGGTKVEIKRTVAAPSVFIFPPSDEQLKSGTASVVCLLNNFYPREAKVQWKVDNALQSGNSQESVTEQDSKDSTYSLSSTLTLSKADYEKHKVYACEVTHQGLSSPVTKSFNRGEC
notes: F3' format heterodimer of three chains; human IgG1 Fc with EW-RVT and Y349C/S354C mutations; also called AB0089 Lot AB0089-002; CLEC12A TriNKET AB0089
B1: the “EC50, KHYG1-CD16aV cytotoxicity assay; after forced oxidation” value in assay [1] worked out at 0.16 nM. For the same molecule, in assay [1], the “EC50, KHYG1-CD16aV cytotoxicity assay; control sample” value amounted to 0.11 nM. Moreover, the koff in assay [2] amounted to 0.0272 s⁻¹; in assay [3], 0.0476 s⁻¹. Moreover, the Kd stood at 1 nM in assay [4], 0.09 nM in assay [5], 0.35 nM in assay [6] and 0.9 nM in assay [7]. In addition, the kon in assay [8] was determined as 8.62e+06 M⁻¹ s⁻¹.

Usually koff stands for a measure of how fast the partners let go of each other. One may read the Kd as a measure of binding affinity in units of concentration. One may read the kon as the second-order rate constant of association.

For the origin of these results see US20220119534A1 (DRAGONFLY THERAPEUTICS, published 2022).
